B1: FBXO3 (parent)
chain: GGFPIIRDQIFRYVHDPECVATTG
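Further: lentivirally expressed fusions sorted by FACS into six bins by GFP to DsRed ratio, PSI derived from sequencing read proportions per bin multiplied by bin number.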

Variants of: B1
Test: protein stability index of a GFP-peptide fusion (GPS, HEK-293T) (PSI 1-6); higher = more stable
Settings: c terminus: a fixed tail appended
GGFPIIRDQIERYVHDPECVATTG showed a protein stability index of 3.58. In the case of GGFPIIRDQIWRYVHDPECVATTG, the protein stability index is reported as 1.9. GGFPIIRDQIVRYVHDPECVATTG showed a protein stability index of 3.18. In the case of GGFPIIRDQISRYVHDPECVATTG, the protein stability index is reported as 3.45. Work on GGFPIIRDQIMRYVHDPECVATTG yielded a protein stability index of 2.78. With GGFPIIRDQITRYVHDPECVATTG the protein stability index was 3.35. In the case of GGFPIIRDQIPRYVHDPECVATTG, the protein stability index is reported as 3.38. Variant GGFPIIRDQIGRYVHDPECVATTG has a protein stability index of 3.48. With GGFPIIRDQILRYVHDPECVATTG the protein stability index was 3.02. Work on GGFPIIRDQIRRYVHDPECVATTG yielded a protein stability index of 2.89. In the case of GGFPIIRDQINRYVHDPECVATTG, the protein stability index is reported as 3.67. For GGFPIIRDQIYRYVHDPECVATTG, the protein stability index was 2.76. GGFPIIRDQIHRYVHDPECVATTG showed a protein stability index of 4.01. Variant GGFPIIRDQIKRYVHDPECVATTG has a protein stability index of 2.85. GGFPIIRDQIARYVHDPECVATTG showed a protein stability index of 3.59. For GGFPIIRDQIDRYVHDPECVATTG, the protein stability index was 3.94. With GGFPIIRDQIIRYVHDPECVATTG the protein stability index was 2.45. GGFPIIRDQICRYVHDPECVATTG gave a protein stability index of 2.92. With GGFPIIRDQIQRYVHDPECVATTG the protein stability index was 3.1. GGFPIIRDKIFRYVHDPECVATTG showed a protein stability index of 1.75. GGFPIIRDFIFRYVHDPECVATTG showed a protein stability index of 2.43. With GGFPIIRDVIFRYVHDPECVATTG the protein stability index was 2.95. Variant GGFPIIRDGIFRYVHDPECVATTG has a protein stability index of 1.75. GGFPIIRDCIFRYVHDPECVATTG gave a protein stability index of 1.87. Work on GGFPIIRDTIFRYVHDPECVATTG yielded a protein stability index of 1.58. Work on GGFPIIRDRIFRYVHDPECVATTG yielded a protein stability index of 2.18. GGFPIIRDAIFRYVHDPECVATTG showed a protein stability index of 2.13. With GGFPIIRDEIFRYVHDPECVATTG the protein stability index was 2.09. In the case of GGFPIIRDWIFRYVHDPECVATTG, the protein stability index is reported as 2.29. In the case of GGFPIIRDPIFRYVHDPECVATTG, the protein stability index is reported as 2.65. Work on GGFPIIRDIIFRYVHDPECVATTG yielded a protein stability index of 1.9. GGFPIIRDYIFRYVHDPECVATTG gave a protein stability index of 2.13. GGFPIIRDDIFRYVHDPECVATTG gave a protein stability index of 2.83. GGFPIIRDNIFRYVHDPECVATTG gave a protein stability index of 2.29. With GGFPIIRDLIFRYVHDPECVATTG the protein stability index was 2.08. For GGFPIIRDHIFRYVHDPECVATTG, the protein stability index was 1.64. In the case of GGFPIIRDSIFRYVHDPECVATTG, the protein stability index is reported as 1.8. GGFPIIRDQIFRYVWDPECVATTG gave a protein stability index of 1.85. Work on GGFPIIRDQIFRYVMDPECVATTG yielded a protein stability index of 1.49. Variant GGFPIIRDQIFRYVRDPECVATTG has a protein stability index of 1.68. With GGFPIIRDQIFRYVADPECVATTG the protein stability index was 1.95. GGFPIIRDQIFRYVPDPECVATTG showed a protein stability index of 2.27. In the case of GGFPIIRDQIFRYVCDPECVATTG, the protein stability index is reported as 1.97. In the case of GGFPIIRDQIFRYVTDPECVATTG, the protein stability index is reported as 2.28. GGFPIIRDQIFRYVQDPECVATTG gave a protein stability index of 2.02. For GGFPIIRDQIFRYVKDPECVATTG, the protein stability index was 2.05. In the case of GGFPIIRDQIFRYVIDPECVATTG, the protein stability index is reported as 1.62. GGFPIIRDQIFRYVGDPECVATTG showed a protein stability index of 1.78. With GGFPIIRDQIFRYVNDPECVATTG the protein stability index was 1.84. For GGFPIIRDQIFRYVLDPECVATTG, the protein stability index was 1.94. Work on GGFPIIRDQIFRYVDDPECVATTG yielded a protein stability index of 2.41. GGFPIIRDQIFRYVVDPECVATTG showed a protein stability index of 2.58. GGFPIIRDQIFRYVFDPECVATTG showed a protein stability index of 1.85. GGFPIIRDQIFRYVEDPECVATTG showed a protein stability index of 2.85. GGFPIIRDQIFRYVSDPECVATTG showed a protein stability index of 1.5. GGFPIIRNQIFRYVHDPECVATTG gave a protein stability index of 1.54. Work on GGFPIIREQIFRYVHDPECVATTG yielded a protein stability index of 1.52. In the case of GGFPIIRRQIFRYVHDPECVATTG, the protein stability index is reported as 3.49. GGFPIIRTQIFRYVHDPECVATTG gave a protein stability index of 1.24. Variant GGFPIIRIQIFRYVHDPECVATTG has a protein stability index of 3.17. GGFPIIRYQIFRYVHDPECVATTG gave a protein stability index of 3.32. In the case of GGFPIIRQQIFRYVHDPECVATTG, the protein stability index is reported as 1.7. GGFPIIRAQIFRYVHDPECVATTG showed a protein stability index of 2.14. For GGFPIIRKQIFRYVHDPECVATTG, the protein stability index was 2.39. With GGFPIIRPQIFRYVHDPECVATTG the protein stability index was 1.27. GGFPIIRSQIFRYVHDPECVATTG gave a protein stability index of 1.61. With GGFPIIRVQIFRYVHDPECVATTG the protein stability index was 2.54. With GGFPIIRDQIFWYVHDPECVATTG the protein stability index was 1.58. GGFPIIRDQIFKYVHDPECVATTG showed a protein stability index of 2.67. In the case of GGFPIIRDQIFPYVHDPECVATTG, the protein stability index is reported as 2.82. Work on GGFPIIRDQIFDYVHDPECVATTG yielded a protein stability index of 3.21. Work on GGFPIIRDQIFEYVHDPECVATTG yielded a protein stability index of 3.39. In the case of GGFPIIRDQIFSYVHDPECVATTG, the protein stability index is reported as 2.89. GGFPIIRDQIFGYVHDPECVATTG showed a protein stability index of 3.12. GGFPIIRDQIFVYVHDPECVATTG showed a protein stability index of 1.22. GGFPIIRDQIFMYVHDPECVATTG gave a protein stability index of 1.35. GGFPIIRDQIFCYVHDPECVATTG showed a protein stability index of 1.75. Work on GGFPIIRDQIFHYVHDPECVATTG yielded a protein stability index of 2.69. For GGFPIIRDQIFIYVHDPECVATTG, the protein stability index was 2.63. GGFPIIRDQIFQYVHDPECVATTG gave a protein stability index of 2.79. With GGFPIIRDQIFNYVHDPECVATTG the protein stability index was 3.01. GGFPIIRDQIFLYVHDPECVATTG gave a protein stability index of 1.64. For GGFPIIRDQIFTYVHDPECVATTG, the protein stability index was 2.21. For GGFPIIRDQIFYYVHDPECVATTG, the protein stability index was 1.64. With GGFPIIRDQIFFYVHDPECVATTG the protein stability index was 1.92. In the case of GGFPIIRDQIFAYVHDPECVATTG, the protein stability index is reported as 2.3. GGFPSIRDQIFRYVHDPECVATTG showed a protein stability index of 2.23. For GGFPWIRDQIFRYVHDPECVATTG, the protein stability index was 1.53. Work on GGFPQIRDQIFRYVHDPECVATTG yielded a protein stability index of 1.59. Work on GGFPRIRDQIFRYVHDPECVATTG yielded a protein stability index of 1.86. Work on GGFPTIRDQIFRYVHDPECVATTG yielded a protein stability index of 2.28. In the case of GGFPVIRDQIFRYVHDPECVATTG, the protein stability index is reported as 1.58. With GGFPYIRDQIFRYVHDPECVATTG the protein stability index was 2.26. Variant GGFPISRDQIFRYVHDPECVATTG has a protein stability index of 2.44.

Reference: the supplement of paper PMC10567573
